Drawing on the RNAGym collection of RNA variant scans (doi:10.7554/elife.90254), this text covers self-cleavage for 167 variants.

To fix the notation:
B1: LINE1-full (parent)
chain: UACGUAGGUGGUUUUCCCCUGAUAGUGCUAAGGGGGCCUGGAAGUUUGGACUGGGCAGAGCUCAACACAGCGUGGCAAAGUGGCUGUGGCUAGACUGCCUCUCUGGAUUCCUCGUCACUCAGCAGGGCAUCUCUGAGAGAAAUGCC

Variants of B1 are the subject of this data set. The data set is described as follows: self-cleavage, relative activity (ratio to wild type); higher = more cleavage; in vitro, sequencing; the parent is a self-cleaving ribozyme.
A30G A129U: the self-cleavage is 0.89.
A30G U134A: the self-cleavage was determined as 1.05.
Turning to A30G U134C, the self-cleavage worked out at 1.13.
The figure for A30U G114C is 1.25.
The same measure for A31U C131U: 1.06; for A30U U52C: 1.09; for A30G U102G: 1.84.
In the case of A30G G36C, the self-cleavage was found to be 1.25.
The figure for U29C A57U is 0.33; for U29C A57G it is 0.98; for A31G A94G it is 0.94.
Consider A31C U134A, for which the self-cleavage was determined as 1.26.
As to U29A U73A, the self-cleavage came to 1.55.
The same measure for A31U A78G: 0.94.
The same measure for A31U A78U: 1.57.
As to U29C A78U, the self-cleavage is 2.53.
Regarding A31G A77G, the self-cleavage stood at 2.49.
In the case of A31U U45A, the self-cleavage came to 0.9.
The figure for A31U U45C is 1.17; for A30U G34A it is 1.13; for A30U A67U it is 0.1.
The figure for A31G A140G is 1.79; for A31G A124G it is 1.09.
The figure for U29C A92U is 0.81; for U29C A50G it is 0.82.
Regarding U29C A77G, the self-cleavage came to 1.92.
In the case of U29C C128U, the self-cleavage came out at 1.3.
On to U29C G126A, for which the self-cleavage worked out at 0.77.
Take A31G G127C: the self-cleavage stood at 2.39.
The same measure for A31U G34A: 0.56.
The figure for A30C U130A is 0.75; for A30U G72A it is 1.24; for A30G A59U it is 0.78.
As for A31U A79U, the self-cleavage was determined as 2.19.
Consider A31U A79G, for which the self-cleavage amounted to 0.55.
The same measure for A30G U46A: 0.84; for A30G U46C: 1.06; for A30G G139A: 1.31.
In the case of U29C C71A, the self-cleavage came out at 0.32.
As to A31U A129G, the self-cleavage is 1.25.
As for A30U A64U, the self-cleavage was 0.51.
Regarding A31U C145A, the self-cleavage was found to be 1.65.
In the case of A30C C131G, the self-cleavage worked out at 2.01.
The same measure for A30C A138G: 1.84; for A31U G36U: 0.81.
Turning to A31G A136U, the self-cleavage worked out at 1.26.
Consider A31G A136G, for which the self-cleavage came out at 1.37.
As for A30G G49U, the self-cleavage is 0.89.
The figure for A30U C38A is 0.35; for A30G A136U it is 0.55.
With A31U C63G, the self-cleavage came to 0.
As for A30G C56U, the self-cleavage worked out at 0.84.
A31G A107G: the self-cleavage is 1.09.
In the case of A30U A94C, the self-cleavage is 0.
The same measure for A30U A94U: 0.34.
Take A31G U132A: the self-cleavage worked out at 0.94.
With U29C C131U, the self-cleavage came out at 0.93.
Regarding U29C C61A, the self-cleavage was 0.03.
The figure for A30U A124G is 0.84; for A30G A31G it is 1.15.
The figure for A31U A141G is 1.01; for U29C U85G it is 0.28.
The figure for U29C A121G is 1.43; for A31G A50G it is 1.42; for U29C C56U it is 0.23.
In the case of A31U U46C, the self-cleavage is 1.05.
In the case of U29C G105A, the self-cleavage amounted to 1.13.
The figure for A31U G82U is 0.74.
Take A31G A43U: the self-cleavage was 0.89.
The same measure for A31U A65G: 0.16; for A31U A65U: 0.21; for U29C U96A: 0.15.
The same measure for U29C U96C: 0.24; for A30U A129U: 1.38.
The figure for A30U A129G is 0.58.
Consider A31G U130A, for which the self-cleavage came to 1.26.
On to A31G U130C, for which the self-cleavage was 1.45.
Turning to A30C G58U, the self-cleavage was 0.09.
The figure for A30G G135A is 1.4; for A30G G75A it is 1.05; for A31C A79G it is 1.02.
Regarding A31G U112A, the self-cleavage stood at 1.61.
The same measure for U29C A69G: 0.53; for A31G U104C: 1.91; for A31U A138G: 1.26.
The same measure for A31G U115C: 1.37.
Turning to A31U A136G, the self-cleavage was found to be 0.79.
The figure for A30G A78G is 1.34; for A30G A78U it is 1.44.
With A31C U45C, the self-cleavage stood at 1.84.
The same measure for U29A U134A: 1.19; for A30C A67C: 0.21; for A30U C95A: 0.03.
The same measure for A30U G89U: 0.03; for A30U G54U: 0.84.
The figure for A31U A69G is 0.75; for U29C C146U it is 1.02.
Consider A30U C56U, for which the self-cleavage stood at 0.04.
The figure for A31U C37A is 1.53; for A30U U45A it is 1.14; for A30U A77U it is 0.98.
The same measure for A30U A79G: 0.91; for U29C A142C: 1.06; for U29C A142G: 1.38.
The same measure for U29C A142U: 0.86; for A31C U47A: 1.12; for A31U A142G: 0.78.
Turning to A30U U134A, the self-cleavage was 0.68.
As to A31C G54A, the self-cleavage turned out to be 1.02.
The same measure for A31U A77U: 0.96; for A30C G122A: 1.02.
The figure for A31G G36C is 1.67; for A31G G36A it is 0.99; for A31U A64U it is 0.42.
Take U29G A107G: the self-cleavage came out at 2.23.
The same measure for A31G A92G: 0.09.
The same measure for A31C U132C: 2.33; for A31G G44A: 2.09.
The same measure for U29C A117U: 1.51; for A30U U109C: 1.33; for A30U A142G: 1.28.
Take A30G U73C: the self-cleavage came out at 2.09.
The same measure for A31U C51G: 1.4; for A30G U39C: 1.13; for A30G U39A: 0.98.
For U29A U62A, the self-cleavage came out at 0.
Consider A31U A57U, for which the self-cleavage came to 0.24.
As to A30G C66U, the self-cleavage was 0.05.
The same measure for A30G C90U: 0.07; for A30G A69C: 0.26.
In the case of A30G A69G, the self-cleavage was determined as 0.55.
On to A31U A117U, for which the self-cleavage worked out at 0.95.
The figure for A31U A117G is 1.2; for U29C A141G it is 1.27; for A31G C131U it is 0.61.
Turning to A31U A42G, the self-cleavage was found to be 1.46.
The figure for A30G A117U is 1.17.
A30G A141U: the self-cleavage was 1.06.
The same measure for A30G A141C: 0.82.
The figure for U29C U143C is 1.75.
On to U29C U91C, for which the self-cleavage is 1.38.
The same measure for A30G A42U: 1.06; for A30G C118U: 1.93; for A31G A79U: 2.64.
The figure for U29A U87C is 0.22; for U29A U87G it is 0.12; for A30G A121U it is 0.84.
On to A30G A121G, for which the self-cleavage amounted to 0.52.
The same measure for A30G G35A: 1.11.
As to A31C U109C, the self-cleavage turned out to be 2.01.
The same measure for A31G G105U: 1.27; for A31G G105A: 1.29; for U29C C68U: 0.4.
With U29A G126A, the self-cleavage was 0.75.
Regarding U29A U100A, the self-cleavage was 0.91.
A31C U87A: the self-cleavage worked out at 0.07.
The same measure for A30U U73C: 1.8; for A30U U73A: 2.55.
The same measure for U29C A79G: 1.16.
The same measure for U29C A79U: 2.16; for A30U U102A: 0.58; for A30U U102C: 0.75.
Consider U29C A30G, for which the self-cleavage is 0.89.
Turning to U29C A30U, the self-cleavage was found to be 1.23.
The same measure for U29C G122U: 1.35; for U29C G122A: 1.68.
Turning to U29C U45A, the self-cleavage is 0.
